In patent publication US11994512B2, “Single-cell genomic methods to generate ex vivo cell systems that recapitulate in vivo biology with improved fidelity” (Massachusetts Institute of Technology, priority 2018, dated 2024):

System: intracellular proteome of ENR+CD and ENR organoids
Experiment: LC-MS/MS TMT proteomics of ENR+CD versus ENR organoids
Type: cell-based, C57BL/6 mice
Settings: for Average logFC: ENR+CD versus ENR organoids, sample pairs in aggregate (n=4, 2 technical replicates from two biological donors); for M1-1 Log2 Median Normalized / M1-2 Log2 Median Normalized / M2-1 Log2 Median Normalized / M2-2 Log2 Median Normalized: protein abundance ratio ENR+CD versus ENR organoids, LC-MS/MS TMT proteomics; for M1-1 Log2 Median Normalized: sample pair M1-1; for M1-2 Log2 Median Normalized: sample pair M1-2; for M2-1 Log2 Median Normalized: sample pair M2-1; for M2-2 Log2 Median Normalized: sample pair M2-2; for change: up = enriched in ENR+CD, down = enriched in ENR, FDR<0.05 and log fold change cut-off

Row | Molecule | Average logFC | M1-1 Log2 Median Normalized | M1-2 Log2 Median Normalized | M2-1 Log2 Median Normalized | M2-2 Log2 Median Normalized | change
1 | Q9DCT8 (protein, UniProt Q9DCT8 1-208, looked up, full-length) MASKCPKCDKTVYFAEKVSSLGKDWHKFCLKCERCNKTLTPGGHAEHDGKPFCHKPCYATLFGPKGVNIGGAGSYIYEKPQTEAPQVTGPIEVPVVRTEERKTSGPPKGPSKASSVTTFTGEPNMCPRCNKRVYFAEKVTSLGKDWHRPCLRCERCSKTLTPGGHAEHDGQPYCHKPCYGILFGPKGVNTGAVGSYIYDKDPEGTVQP | 1.386 | 1.983 | 1.517 | 0.9975 | 1.047 | up
2 | Q9DD24 (protein, UniProt Q9DD24 1-104, looked up, full-length) MKPCQKMEGNLEKEDEPKPEEEPKPEEKPEEGQEPEEEEKSEETFRERLIRSLQDFQEDIHNRHLSSDDLFRDVEELDEIRKVRNKLIVTRWKANRSHPYPYLM | 1.262 | 1.266 | 0.97 | 1.6605 | 1.153 | up
3 | Q9D9Z1 (protein, UniProt Q9D9Z1 1-312, looked up, full-length) MAAPEAEAQETAFRTTGPPTDSEPRPFPPSSRKFPFESAAADSNEDWAVAAEHYLKGSGENGGWEQPAPGVQPSHPATMASAKTVCDAQPHSMPSCGLPADTQTRATSKLPVKSKEADLLRHLHPGGPEPDVTKVTKSRRENGQVKAAETASRRNLRNSYKPFNKQKPEEELKDKNELLEAVNKQLHQKLTETQGELKDLTQKVELLEKFQDNCLALLESKGLNPGQETLASKQEPTTDHTDSMLLLETLKDELKVFNETAKKQMEELQALKVKLKLKEEESVQFLEQQTLCKDEASDFTIILEEMEQLLEM | −1.13 | −1.473 | −0.579 | −0.8635 | −1.605 | down
4 | Q9D6X6 (protein, UniProt Q9D6X6 1-382, looked up, full-length) MAGIPGLFILLVLLCVFMQVSPYTVPWKPTWPAYRLPVVLPQSTLNLAKADFDAKAKLEVSSSCGPQCHKGTPLPTYEEAKQYLSYETLYANGSRTETRVGIYILSNGEGRARGRDSEATGRSRRKRQIYGYDGRFSIFGKDFLLNYPFSTSVKLSTGCTGTLVAEKHVLTAAHCIHDGKTYVKGTQKLRVGFLKPKYKDGAGGDNSSSSAMPDKMKFQWIRVKRTHVPKGWIKGNANDIGMDYDYALLELKKPHKRQFMKIGVSPPAKQLPGGRIHFSGYDNDRPGNLVYRFCDVKDETYDLLYQQCDAQPGASGSGVYVRMWKRPQQKWERKIIGIFSGHQWVDMNGSPQDFNVAVRITPLKYAQICYWIKGNYLDCREG | 1.179 | 1.521 | 1.393 | 0.7475 | 1.055 | up
5 | Q9D8W7 (protein, UniProt Q9D8W7 1-154, looked up, full-length) MASVSTHGNQEKSPHLPPLSKQSLLFCPKSKLHIHRGEIAKIIRECQEESFWKRALPFSLISMLVTQGLVHQGYLAANPRFGSLPKVALAGLLGFGLGKASYIRVCQSKFHSFEDQLRGAGFGPEHNRHCLLTCEDCKTRRGLSEKAGSQPSAS | −1.397 | −0.573 | −1.182 | −1.9045 | −1.927 | down
6 | Q9DBG7 (protein, UniProt Q9DBG7 1-636, looked up, full-length) MLDFFTIFSKGGLVLWCFQGVSDSCTGPVNALIRSVLLQERGGNNSFTHEALTLKYKLDNQFELVFVVGFQKILTLTYVDKLIDDVHRLFRDKYRTEIQQQSALSLLNGTFDFQNDFLRLLREAEESSKIRAPTTMKKFEDSEKAKKPVRSMIETRGEKTKEKAKNNKKRGAKKEGSDGTLATSKTAPAEKSGLSAGPENGELSKEELIRRKREEFIQKHGKGLDKSSKSTKSDTPKEKGKKAPRVWELGGCANKEVLDYSTPTTNGTPEAALSEDINLIRGTGPGGQLQDLDCSSSDDEGATQNTKPSATKGTLGGMFGMLKGLVGSKSLSREDMESVLDKMRDHLIAKNVAADIAVQLCESVANKLEGKVMGTFSTVTSTVKQALQESLVQILQPQRRVDMLRDIMDAQRRQRPYVVTFCGVNGVGKSTNLAKISFWLLENGFSVLIAACDTFRAGAVEQLRTHTRRLTALHPPEKHGGRTMVQLFEKGYGKDAAGIAMEAIAFARNQGFDVVLVDTAGRMQDNAPLMTALAKLITVNTPDLVLFVGEALVGNEAVDQLVKFNRALADHSMAQTPRLIDGIVLTKFDTIDDKVGAAISMTYITSKPIVFVGTGQTYCDLRSLNAKAVVAALMKA | 1.192 | 1.346 | 1.118 | 0.9025 | 1.401 | up
7 | Q9DA97 (protein, UniProt Q9DA97 1-430, looked up, full-length) MAEKPTNTSVPIPGSEDPQKENIRCLSTLGHFGFECLPTQLVNKSIQKGFSFNILCVGETGIGKTTLINTLFNTNLKETKSSHFYSKVGLTVKTYELLERNIPLRLTVVKTVGYGDQINKEASYQPVVDYLDAQFEAYLQEELKIKRSLADYHDSRIHVCLYFITPTGHSLKSLDLLTMKSIDRRVNIIPLIAKADSLSKNDLQRFKNNIMSELNSNGIQIYQFQVDDEASAQVNSSGLLPFAVVGSMEEVKVGKRMVRGRHYPWGVLQEVENENHCDFVKLRDLLLSTNMEDLKDQTHTQHYECYRSNRLQKLGFSDTGPDNRPVSFQEMYEAKRREFHNQCQKEEEELKQTFMQRVKEKELTFKDAEKELQDKFEHLKRIQQEEILKLEEERRKLEEQIIDFYKMKAASESAQAQVCTNIKKDKDRKK | −1.147 | −0.99 | −1.148 | −0.7465 | −2.635 | down
8 | Q9EPC5 (protein, UniProt Q9EPC5 1-134, looked up, full-length) MPADLSGTWNLLSSDNFEGYMLALGIDFATRKIAKLLKPQKVIEQNGDSFTIQTCSSLRNYLVKFKVGEEFEEDNKGLDNRKCTSLVTWENDKLTCVQRGEKKNRGWSHWIEGDQLHLEMFCEGQVCKQTFQRA | −2.14 | −2.063 | −2.064 | −2.2365 | −2.196 | down
9 | Q9D3P9 (protein, UniProt Q9D3P9 1-169, looked up, full-length) MRGMNLQLVCLTLLAFSSWSLCSDSEEDVRALEADLLTNMHTSKISKASPPSWKMTLLNVCSLINNVNSPAEEAGDMHDDDLVGKRKLPLVLDGFSLEAMLTIFQLQKICRSRAFQHWEIIQEDILDNVNDKNEKEEVIKRKIPYILKRQLYENKPRRPYILKRGSYYY | 1.285 | 1.731 | 0.439 | 0.8595 | 2.111 | up
10 | Q9D816 (protein, UniProt Q9D816 1-490, looked up, full-length) MDPVLVLVLTLSCLLLLSLWRQNSGRGKLPPGPTPFPIIGNILQIDIKNISKSFNYFSKVYGPVFTLYFGSKPTVVVHGYEAVKEALDDLGEEFSGRGSFQIFERINNDLGVIFSNGTKWKELRRFSIMTLRSFGMGKRSIEDRIQEEASCLVEELRKANGSLCDPTFILSCAPSNVICSVIFHNRFDYKDEKFLNLMERLNENFKILNSPWMQVYNALPTLINYLPGSHNKVIKNFTEIKSYILGRVKEHQETLDMDNPRDFIDCFLIKMEQEKHNPHSEFTIESLMATVTDIFVAGTETTNITLRYGLLLLLKHTEVTAKVQAEIDHVIGRHRSPCMQDRTRMPYTDAMVHEIQRYIDLIPNNVPHAATCNVRFRSYFIPKGTELVTSLTSVLHDDKEFPNPEVFDPGHFLDENGNFKKSDYFMPFSIGKRMCVGEALARTELFLILTTILQNFNLKSLVDTKDIDTTPVANTFGRVPPSYQLYFIPR | 1.132 | 0.664 | 1.318 | 0.5735 | 1.971 | up
11 | Q9D6F4 (protein, UniProt Q9D6F4 1-552, looked up, full-length) MVSVQKVPAIALCSGVSLALLHFLCLAACLNESPGQNSKDEKLCPENFTRILDSLLDGYDNRLRPGFGGPVTEVKTDIYVTSFGPVSDVEMEYTMDVFFRQTWIDKRLKYDGPIEILRLNNMMVTKVWTPDTFFRNGKKSVSHNMTAPNKLFRIMRNGTILYTMRLTISAECPMRLVDFPMDGHACPLKFGSYAYPKSEMIYTWTKGPEKSVEVPKESSSLVQYDLIGQTVSSETIKSITGEYIVMTVYFHLRRKMGYFMIQTYIPCIMTVILSQVSFWINKESVPARTVFGITTVLTMTTLSISARHSLPKVSYATAMDWFIAVCFAFVFSALIEFAAVNYFTNIQMQKAKKKISKPPPEVPAAPVLKEKHTETSLQNTHANLNMRKRTNALVHSESDVKSRTEVGNHSSKTSAVQESSEATPKAHLASSPNPFSRANAAETMSAAARGLSSAASPSPHGTLRPASLGSASTRPAFGSRLGRIKTTVNTTGAAGNVSATPPPPAPPPSGSGTSKIDKYARILFPVTFGAFNMVYWVVYLSKDTMEKSESLM | 1.263 | 0.695 | 0.98 | 1.4175 | 1.959 | up
